The values that follow come from patent US20090202526A1 (RINAT NEUROSCIENCE, published 2009).

Experiment [1] addresses T1, Human trkC-Fc fusion protein (human, UniProt Q16288 32-429).
T1 construct: Immobilised on CM5 chip for BIAcore; also called htrkC; not shown: Fc part not described
Nature of the experiment: BIAcore SPR, human trkC-Fc on chip; KD calculated from koff with 2256 kon 5E5 1/Ms.

The target of experiment [2] is T1, Human trkC-Fc fusion protein. Nature of the experiment: BIAcore SPR, Fab over immobilised human trkC-Fc. The method, then:
(§1) Affinities of anti-trkC Fabs and monoclonal antibodies were determined using the BIAcore 3000™ surface plasmon resonance (SPR) system (BIAcore, INC, Piscaway N.J.). CM5 chips were activated with N-ethyl-N′-(3-dimethylaminopropyl)-carbodiimide hydrochloride (EDC) and N-hydroxysuccinimide (NHS) according to the supplier's instructions. Human or rat trkC-Fc fusion protein was diluted into 10 mM sodium acetate pH 5.0 and injected over the activated chip at a concentration of 0.005 mg/mL. Using variable flow time across the individual chip channels, two ranges of antigen density were achieved: 200-400 response units (RU) for detailed kinetic studies and 500-1000 RU for screening assays. The chip was blocked with ethanolamine. […] HBS-EP buffer (0.01M HEPES, pH 7.4, 0.15 NaCl, 3 mM EDTA, 0.005% Surfactant P20) was used as running buffer for all the BIAcore assays. […] The concentrations of the Fab proteins are determined by ELISA and/or SDS-PAGE electrophoresis using a Fab of known concentration (as determined by amino acid analysis) as a standard. Kinetic association rates (kₒₙ) and dissociation rates (koff) are obtained simultaneously by fitting the data to a 1:1 Langmuir binding model (Karlsson, R. Roos, H. Fagerstam, L. Petersson, B. (1994). Methods Enzymology 6. 99-110) using the BlAevaluation program. Equilibrium dissociation constant (KD) values are calculated as koff/kₒₙ.
We prepared antibody clones bearing the CDR and/or framework region substitution mutations shown in Table 1 and determine KD and other kinetic parameters using BIAcore analysis as described herein.
Background: SPR reads the build-up and loss of mass on a sensor chip optically.

The target in experiment [3] is T2, Rat trkC-Fc fusion protein (rat, UniProt Q03351 32-429).
T2 construct: Immobilised on CM5 chip for BIAcore; not shown: Fc part not described
Nature of the experiment: BIAcore SPR, Fab over immobilised rat trkC-Fc. The procedure:
as §1

B1: Fab clone 129(T8) (Fab, V domains shown)
VH: QVQLVQSGAEVKKPGASVKVSCKASGYTFTSYWMHWVRQAPGQGLEWMGEIYPSNGRTNYNEKFKSRATMTGDKSTSTVYMELSSLRSEDTAVYYCARKYYYGNSRRSWYFDVWGQGTTVTVS
VL: DIQMTQSPSSLSASVGDRVTITCRASESVDNYGISFMNWYQQKPGKAPKLLIYAASNQGSGVPSRFSGSGSGTDFTFTISSLQPEDIATYYCQQSKTVPRTFGQGTKLEIKR
Broadly, the Kd is the equilibrium constant for the complex coming apart. A word on the koff: it is a measure of how fast the partners let go of each other. Lower therefore signals slow dissociation. Regarding B1, the Kd in experiment [1] is 3 nM. Further, the dissociation rate constant (koff) in experiment [2] stood at 0.0016 s⁻¹.

B2: Fab clone 129(T6) (Fab, V domains shown)
VH: QVQLVQSGAEVKKPGASVKVSCKASGYTFTSYWMHWVRQAPGQGLEWMGEIYPSNGRTNYNEKFKSRVTMTGDTSTSTVYMQLSSLRSEDTAVYYCARKYYYGNSKRSWYFDVWGQGTTVTVS
VL: DIQMTQSPSSLSASVGDRVTITCRASESVDNYGISFMNWYQQKPGQAPKLLIYAASNQGSGVPSRFSGSGSGTDFTFTISSLQPEDIATYYCQQSKEVPRTFGQGTKLEIKR
In the case of B2, the Kd in experiment [1] is 6.4 nM. In experiment [2], the off-rate (koff) came out at 0.0034 s⁻¹.

B3: Fab clone 129(T8)(H9) (Fab, V domains shown)
VH: QVQLVQSGAEVKKPGASVKVSCKASGYTFTSYWRHWVRQAPGQGLEWMGEIYPSNGRTNYNEKFKSRATMTGDKSTSTVYMELSSLRSEDTAVYYCARKYYYGNSRRSWYFDVWGQGTTVTVS
VL: DIQMTQSPSSLSASVGDRVTITCRASESVDNYGISFMNWYQQKPGKAPKLLIYAASNRGSGVPSRFSGSGSGTDFTFTISSLQPEDIATYYCQQSKTVPRTFGQGTKLEIKR
Regarding B3, the Kd in experiment [1] is 3 nM. The same molecule showed a koff in experiment [2] of 0.0015 s⁻¹.

B4: Fab clone 129(T8)(E10) (Fab, V domains shown)
VH: QVQLVQSGAEVKKPGASVKVSCKASGYTFTSYRLHWVRQAPGQGLEWMGEIYPSNGRTNYNEKFESRATMTGDKSTSTVYMELSSLRSEDTAVYYCARKYYYGNSRRSWYFDVWGQGTTVTVS
VL: DIQMTQSPSSLSASVGDRVTITCRASESIDNYGISFLAWYQQKPGKAPKLLIYAASNRGSGVPSRFSGSGSGTDFTFTISSLQPEDIATYYCQQSKTVPRTFGQGTKLEIKR
notes: Light chain changes are the same as in A5
Turning to B4, in experiment [1], the Kd is 3.2 nM. The same molecule displayed a koff in experiment [2] of 0.0016 s⁻¹.

B5: Fab clone 129(T8)(H8) (Fab, V domains shown)
VH: QVQLVQSGAEVKKPGASVKVSCKASGYTFTSYRIHWVRQAPGQGLEWMGEIYPSNSRTNYNEKFKSRATMTGDKSTSTVYMELSSLRSEDTAVYYCARKYYYGNSRRSWYFDVWGQGTTVTVS
VL: DIQMTQSPSSLSASVGDRVTITCRASESVDNYGISFMTWYQQKPGKAPKLLIYAASNLGSGVPSRFSGSGSGTDFTFTISSLQPEDIATYYCQQSKTVPRTFGQGTKLEIKR
On to B5, for which the dissociation constant Kd in experiment [1] is 1.2 nM. This molecule also came in with a koff in experiment [2] of 0.0006 s⁻¹.

B6: Fab clone 129(T8)(E12) (Fab, V domains shown)
VH: QVQLVQSGAEVKKPGASVKVSCKASGYTFTSYWLHWVRQAPGQGLEWMGEIYPSNSRTNYNEKFKSRATMTGDKSTSTVYMELSSLRSEDTAVYYCARKYYYGNSRRSWYFDVWGQGTTVTVS
VL: DIQMTQSPSSLSASVGDRVTITCRASESVDSYGISFMNWYQQKPGKAPKLLIYAASNLGSGVPSRFSGSGSGTDFTFTISSLQPEDIATYYCQQSKTVPRTFGQGTKLEIKR
Regarding B6, the Kd in experiment [1] was 1.8 nM. Further, in experiment [2], the koff is 0.0009 s⁻¹.

B7: Fab clone 129(T8)(H8xE10)(10B)(C7) (Fab, V domains shown)
VH: QVQLVQSGAEVKKPGASVKVSCKASGYTFTSYRIHWVRQAPGQGLEWMGEIYPSNTRTNYNEKFKSRVTMTRDTSTSTVYMELSSLRSEDTAVYYCARKYYYGNTRRSWYFDVWGQGTTVTVS
VL: DIQMTQSPSSLSASVGDRVTITCRASESIDNYGISFLAWYQQKPGKAPKLLIYAASNRGSGVPSRFSGSGSGTDFTFTISSLQPEDIATYYCQQSKTVPRTFGQGTKLEIKR
A word on the kon: it is the second-order rate constant of association. Higher therefore signals faster complex formation. In experiment [3], B7 yielded a dissociation constant (Kd) of 39 nM, a koff of 0.03 s⁻¹ and a kon of 780000 M⁻¹ s⁻¹. In experiment [2], this molecule registered a Kd of 1.1 nM, a koff of 0.00047 s⁻¹ and a kon of 420000 M⁻¹ s⁻¹.

B8: Fab clone 129(C2) (Fab, V domains shown)
VH: QVQLVQSGAEVKKPGASVKVSCKASGYTFTSYWMHWVRQAPGQGLEWMGEIYPSNGRTNYNEKFKSRVTMTGDTSTSTVYMQLSSLRSEDTAVYYCARKYYYGNSKRSWYFDVWGQGTTVTVS
VL: DIQMTQSPSSLSASVGDRVTITCRASESVDNYGISFMNWYQQKPGQPPKLLIYAASNQGSGVPSRFSGTGSGTDFTFTISSLQPEDIATYYCQQSKEVPRTFGQGTKLEIKR
For B8, in experiment [1], the Kd was 4.7 nM. Also, the koff in experiment [2] was 0.0025 s⁻¹.

B9: Fab clone 129(C16) (Fab, V domains shown)
VH: QVQLVQSGAEVKKPGASVKVSCKASGYTFTSYWMHWVRQAPGQGLEWMGEIYPSNGRTNYNEKFKSRVTMTLDTSTSTVYMQLSSLRSEDTAVYYCARKYYYGNSKRSWYFDVWGQGTTVTVS
VL: DIQMTQSPSSLSASVGDRVTITCRASESVDNYGISFMNWYQQKPGKPPKLLMYAASNQGSGVPSRFSGSGSGTDFTFTISSLQPEDIATYYCQQSKEVPRTFGQGTKLEIKR
As for B9, in experiment [1], the Kd was 4.7 nM. Besides, in experiment [2], the off-rate (koff) was determined as 0.0025 s⁻¹.

B10: Fab clone 129(T26) (Fab, V domains shown)
VH: QVQLVQSGAEVKKPGASVKVSCKASGYTFTSYWMHWVRQAPGQGLEWMGEIYPSNGRTNYNEKFKSRVTMTLDKSTSTVYMQLSSLRSEDTAVYYCARKYYYGNSRRSWYFDVWGQGTTVTVS
VL: DIQMTQSPSSLSASVGDRVTITCRASESVDNYGISFMNWYQQKPGKPPKLLIYAASNQGSGVPSRFSGSGSGTDFTFTISSLQPEDIATYYCQQSKAVPRTFGQGTKLEIKR
Turning to B10, the Kd in experiment [1] was 2.3 nM. Moreover, the koff in experiment [2] worked out at 0.0012 s⁻¹.

B11: Fab clone 129(C36) (Fab, V domains shown)
VH: QVQLVQSGAEVKKPGASVKVSCKASGYTFTSYWMHWVRQAPGQGLEWMGEIYPSNGRTNYNEKFKSRVTMTLDKSTSTVYMQLSSLRSEDTAVYYCARKYYYGNSRRSWYFDVWGQGTTVTVS
VL: DIQMTQSPSSLSASVGDRVTITCRASESVDNYGISFMNWYQQKPGKPPKLLIYAASNQGSGVPSRFSGSGSGTDFTFTISSLQPEDIATYYCQQSKAVPRTFGQGTKLEIKR
With B11, in experiment [1], the Kd is 3.8 nM. In experiment [2], this molecule came in with a koff of 0.002 s⁻¹.

B12: Fab clone 129(T34) (Fab, V domains shown)
VH: QVQLVQSGAEVKKPGASVKVSCKASGYTFTSYWMHWVRQAPGQGLEWMGEIYPSNGRTNYNEKFKSRVTMTRDTSTSTVYMQLSSLRSEDTAVYYCARKYYYGNSRRSWYFDVWGQGTTVTVS
VL: DIQMTQSPSSLSASVGDRVTITCRASESVDNYGISFMNWYQQKPGQPPKLLIYAASNQGSGVPSRFSGSGSGTDFTFTISSLQPEDIATYYCQQSKTVPRTFGQGTKLEIKR
For the molecule B12, the Kd in experiment [1] is 2.3 nM. In experiment [2], the koff is 0.0012 s⁻¹.

B13: Fab clone 129(C14) (Fab, V domains shown)
VH: QVQLVQSGAEVKKPGASVKVSCKASGYTFTSYWMHWVRQAPGQGLEWMGEIYPSNGRTNYNEKFKSRVTMTRDKSTSTVYMHLSSLRSEDTAVYYCARKYYYGNSRRSWYFDVWGQGTTVTVS
VL: DIQMTQSPSSLSASVGDRVTITCRASESVDNYGISFMNWYQQKPGQAPKLLIYAASNQGSGVPSRFSGSGSGTDFTFTISSLQPEDIATYYCQQSKEVPRTFGQGTKLEIKR
Regarding B13, the Kd in experiment [1] was 3.2 nM. In experiment [2], this molecule had a koff of 0.0017 s⁻¹.

B14: Fab clone 129(C28) (Fab, V domains shown)
VH: QVQLVQSGAEVKKPGASVKVSCKASGYTFTSYWMHWVRQAPGQGLEWMGEIYPSNGRTNYNEKFKSRATMTGDTSTSTVYMQLSSLRSEDTAVYYCARKYYYGNSQRSWYFDVWGQGTTVTVS
VL: DIQMTQSPSSLSASVGDRVTITCRASESVDNYGISFMNWYQQKPGQAPKLLIYAASNQGSGVPSRFSGSGSGTDFTFTISSLQPEDIATYYCQQSKTVPRTFGQGTKLEIKR
As for B14, in experiment [1], the Kd is 3.6 nM. The koff in experiment [2] amounted to 0.0019 s⁻¹.

B15: Fab clone 129(C26) (Fab, V domains shown)
VH: QVQLVQSGAEVKKPGASVKVSCKASGYTFTSYWMHWVRQAPGQGLEWMGEIYPSNGRTNYNEKFKSRVTMTGDKSTSTVYMELSSLRSEDTAVYYCARKYYYGNSSRSWYFDVWGQGTTVTVS
VL: DIQMTQSPSSLSASVGDRVTITCRASESVDNYGISFMNWYQQKPGQAPKLLIYAASNQGSGVPSRFSGSGSGTDFTFTISSLQPEDIATYYCQQSKSVPRTFGQGTKLEIKR
As to B15, the Kd in experiment [1] is 13.2 nM. For the same molecule, the koff in experiment [2] stood at 0.007 s⁻¹.

B16: Fab clone 129(T8)(H8xE10)(9A) (Fab, V domains shown)
VH: QVQLVQSGAEVKKPGASVKVSCKASGYTFTSYRIHWVRQAPGQGLEWMGEIYPSNSRTNYNEKFKSRATMTRDKSTSTVYMELSSLRSEDTAVYYCARKYYYGNSRRSWYFDVWGQGTTVTVS
VL: DIQMTQSPSSLSASVGDRVTITCRASESIDNYGISFLAWYQQKPGKAPKLLIYAASNRGSGVPSRFSGSGSGTDFTFTISSLQPEDIATYYCQQSKTVPRTFGQGTKLEIKR
Turning to B16, the dissociation constant Kd in experiment [1] was 0.6 nM. For the same molecule, the koff in experiment [2] amounted to 0.0003 s⁻¹.
